Results reported in article PMC5356841 (Oncotarget, 2016).

Legend:
[1] = target: T1, individual catalytic domain of human MT1-MMP (MT1-CAT) (human, UniProt P50281, biotin (EZ-Link sulfo-NHS-LC-biotin, 1:20 enzyme-biotin molar ratio) in the Fab binding ELISA only; unlabelled in the competition ELISA and the cleavage assays); test: cell-based or functional assay
[2] = target: T1, individual catalytic domain of human …; test: ELISA; biotin-labelled MT1-CAT (25 nM) captured on streptavidin-coated wells; Fab 0-8,000 nM in TBS/T-0.5% gelatin, 1 h, ambient temperature; detected with HRP-conjugated goat anti-human Fab; Kd = Fab concentration that bound 50% of MT1-MMP; conditions: both partners purified

Row | Binder | IC50 of inhibition of MT1-CAT (5 nM) cleavage of the Mca-PLGL-Dpa-AR-NH2 peptide (1 uM); Fab 0-5,000 nM [1] | Kd [2] | binding result [2]
1 | 3A2 Fab (Fab, V domains shown, numbers count on the anti-TDRD3 Fab; From a synthetic human Fab library with 23-27 residue long CDR-H3; selection is described in an accompanying manuscript (submitted); also called 3A2 antibody; 3A2 Fab antibody; source: E. coli, purified from cell lysates (purity >95%)) VH: EVQLVESGGGLVQPGGSLRLSCAASGFNLSSSSMHWVRQAPGKGLEWVASIYPSYSYTYYADSVKGRFTISADTSKNTAYLQMNSLRAEDTAVYYCARVKLQKDKSHQWIRNLVATPYGRYVMDYWGQGTLVTVSS VL: DIQMTQSPSSLSASVGDRVTITCRASQSVSSAVAWYQQKPGKAPKLLIYSASSLYSGVPSRFSGSRSGTDFTLTISSLQPEDFATYYCQQYGYPITFGQGTKVEIK | 18 nM | 8 nM | 
2 | 3E9 Fab (Fab, V domains shown) VH: EVQLVESGGGLVQPGGSLRLSCAASGFNLYYSSMHWVRQAPGKGLEWVASIYPSYGSTYYADSVKGRFTISADTSKNTAYLQMNSLRAEDTAVYYCARNGRYPGFLKRAHKRLLNFKAYVMDYWGQGTLVTVSS VL: DIQMTQSPSSLSASVGDRVTITCRASQSVSSAVAWYQQKPGKAPKLLIYSASSLYSGVPSRFSGSRSGTDFTLTISSLQPEDFATYYCQQGSWYLITFGQGTKVEIK | > 5000 nM |  | 

Continued, values first:

Row | IC50 of inhibition of MT1-CAT (5 nM) cleavage of the Mca-PLGL-Dpa-AR-NH2 peptide (1 uM); Fab 0-5,000 nM [1] | Kd [2] | binding result [2] | Binder
3 | 8.5 nM | 2 nM |  | DX2400 Fab (Fab, V domains shown, VH CDR-H3; Only CDR-H3 is printed; also called DX2400 Fab fragment; source: cloning, expression and isolation reported earlier [66]) VH: EVQLLESGGGLVQPGGSLRLSCAASGFTFSLYSMNWVRQAPGKGLEWVSSIYSSGGSTLYADSVKGRFTISRDNSKNTLYLQMNSLRAEDTAVYYCARGRAFDIWGQGTMVTVSS VL: DIQMTQSPSSLSASVGDRVTITCRASQSVGTYLNWYQQKPGKAPKLLIYATSNLRSGVPSRFSGSGSGTDFTLTISSLQPEDFATYYCQQSYSIPRFTFGPGTKVDIK
4 |  |  | binds | 2B5 Fab (Fab, V domains shown, VH CDR-H3; Only CDR-H3 is printed; Same synthetic human Fab library as 3A2 (accompanying manuscript, submitted); source: E. coli, purified from cell lysates (purity >95%)) VH: EVQLVESGGGLVQPGGSLRLSCAASGFNLSYSSMHWVRQAPGKGLEWVASIYPYSGYTYYADSVKGRFTISADTSKNTAYLQMNSLRAEDTAVYYCARIGVNAWAVKMSQRMLATRGSGWYVMDYWGQGTLVTVSS VL: DIQMTQSPSSLSASVGDRVTITCRASQSVSSAVAWYQQKPGKAPKLLIYSASSLYSGVPSRFSGSRSGTDFTLTISSLQPEDFATYYCQQSSSYPYSPITFGQGTKVEIK
